B1: Mothers against decapentaplegic homolog 4 (Homo sapiens), Q13485 (parent)
chain: MDNMSITNTPTSNDACLSIVHSLMCHRQGGESETFAKRAIESLVKKLKEKKDELDSLITAITTNGAHPSKCVTIQRTLDGRLQVAGRKGFPHVIYARLWRWPDLHKNELKHVKYCQYAFDLKCDSVCVNPYHYERVVSPGIDLSGLTLQSNAPSSMMVKDEYVHDFEGQPSLSTEGHSIQTIQHPPSNRASTETYSTPALLAPSESNATSTANFPNIPVASTSQPASILGGSHSEGLLQIASGPQPGQQQNGFTGQPATYHHNSTTTWTGSRTAPYTPNLPHHQNGHLQHHPPMPPHPGHYWPVHNELAFQPPISNHPAPEYWCSIAYFEMDVQVGETFKVPSSCPIVTVDGYVDPSGGDRFCLGQLSNVHRTEAIERARLHIGKGVQLECKGEGDVWVRCLSDHAVFVQSYYLDREAGRAPGDAVHKIYPSAYIKVFDLRQCHRQMQQQAATAQAAAAAQAAAVAGNIPGPGSVGGIAPAISLSAAAGIGVDDLRRLCILRMSFVKGWGPDYPRQSIKETPCWIEIHLHRALQLLDEVLHTMPIADPQPLD
partner: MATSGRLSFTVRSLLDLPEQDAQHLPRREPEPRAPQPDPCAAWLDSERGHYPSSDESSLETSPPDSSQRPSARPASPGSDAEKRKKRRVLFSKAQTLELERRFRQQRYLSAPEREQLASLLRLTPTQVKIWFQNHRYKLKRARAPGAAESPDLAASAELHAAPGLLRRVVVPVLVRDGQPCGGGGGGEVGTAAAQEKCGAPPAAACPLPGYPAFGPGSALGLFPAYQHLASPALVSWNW
B2: Mothers against decapentaplegic homolog 4 (Homo sapiens), Q13485 (parent)
chain: B1 chain
partner: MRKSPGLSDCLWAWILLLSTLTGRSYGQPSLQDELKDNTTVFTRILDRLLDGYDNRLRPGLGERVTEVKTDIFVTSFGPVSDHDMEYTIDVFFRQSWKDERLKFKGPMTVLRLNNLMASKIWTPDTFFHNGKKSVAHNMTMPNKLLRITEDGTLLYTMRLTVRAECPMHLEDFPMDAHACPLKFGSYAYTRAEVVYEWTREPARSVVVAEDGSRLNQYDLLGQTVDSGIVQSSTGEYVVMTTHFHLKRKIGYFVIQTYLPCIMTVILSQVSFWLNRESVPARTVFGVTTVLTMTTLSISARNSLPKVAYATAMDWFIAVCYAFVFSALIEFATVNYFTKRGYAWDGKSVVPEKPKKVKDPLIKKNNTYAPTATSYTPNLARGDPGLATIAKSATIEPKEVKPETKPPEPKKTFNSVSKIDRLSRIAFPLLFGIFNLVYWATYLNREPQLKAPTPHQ
B3: Mothers against decapentaplegic homolog 4 (Homo sapiens), Q13485 (parent)
chain: B1 chain
partner: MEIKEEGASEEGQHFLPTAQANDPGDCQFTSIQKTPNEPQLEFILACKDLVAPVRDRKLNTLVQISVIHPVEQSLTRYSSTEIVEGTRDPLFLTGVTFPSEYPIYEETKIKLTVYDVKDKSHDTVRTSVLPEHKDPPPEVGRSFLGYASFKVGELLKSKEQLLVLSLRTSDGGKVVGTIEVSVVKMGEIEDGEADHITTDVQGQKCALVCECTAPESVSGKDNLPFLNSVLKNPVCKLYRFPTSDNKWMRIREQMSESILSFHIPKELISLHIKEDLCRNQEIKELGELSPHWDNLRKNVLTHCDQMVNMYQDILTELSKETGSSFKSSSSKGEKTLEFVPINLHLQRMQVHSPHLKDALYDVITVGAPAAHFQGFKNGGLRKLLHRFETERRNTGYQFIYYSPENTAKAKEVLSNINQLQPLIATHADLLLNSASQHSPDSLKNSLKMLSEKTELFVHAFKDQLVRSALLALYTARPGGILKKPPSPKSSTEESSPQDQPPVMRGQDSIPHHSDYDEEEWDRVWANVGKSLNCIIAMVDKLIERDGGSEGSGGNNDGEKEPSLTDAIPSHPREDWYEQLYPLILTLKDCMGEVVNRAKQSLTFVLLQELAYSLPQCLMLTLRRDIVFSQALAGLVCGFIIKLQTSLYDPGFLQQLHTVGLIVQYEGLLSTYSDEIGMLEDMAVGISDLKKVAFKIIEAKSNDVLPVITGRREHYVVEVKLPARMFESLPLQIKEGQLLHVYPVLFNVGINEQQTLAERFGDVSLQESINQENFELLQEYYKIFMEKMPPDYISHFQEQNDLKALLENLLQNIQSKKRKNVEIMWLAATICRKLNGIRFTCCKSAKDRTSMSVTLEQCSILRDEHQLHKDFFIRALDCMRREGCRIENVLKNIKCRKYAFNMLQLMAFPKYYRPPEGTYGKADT
B4: Mothers against decapentaplegic homolog 4 (Homo sapiens), Q13485 (parent)
chain: B1 chain
partner: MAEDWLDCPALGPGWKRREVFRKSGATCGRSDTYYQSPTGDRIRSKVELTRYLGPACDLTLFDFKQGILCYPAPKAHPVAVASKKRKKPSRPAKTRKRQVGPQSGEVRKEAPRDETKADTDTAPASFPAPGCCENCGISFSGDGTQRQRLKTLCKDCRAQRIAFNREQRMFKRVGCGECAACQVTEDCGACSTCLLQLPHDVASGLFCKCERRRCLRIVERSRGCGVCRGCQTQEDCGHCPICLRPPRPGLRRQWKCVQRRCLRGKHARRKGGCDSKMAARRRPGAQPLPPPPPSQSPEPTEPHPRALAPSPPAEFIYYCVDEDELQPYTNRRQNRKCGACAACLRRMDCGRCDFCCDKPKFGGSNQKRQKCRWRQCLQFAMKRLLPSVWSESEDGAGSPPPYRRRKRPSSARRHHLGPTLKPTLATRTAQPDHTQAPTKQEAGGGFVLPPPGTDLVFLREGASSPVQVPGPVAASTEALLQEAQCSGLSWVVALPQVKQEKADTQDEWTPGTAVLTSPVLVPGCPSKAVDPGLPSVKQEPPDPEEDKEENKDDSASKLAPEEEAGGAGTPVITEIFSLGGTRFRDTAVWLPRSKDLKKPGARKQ
B5: Mothers against decapentaplegic homolog 4 (Homo sapiens), Q13485 (parent)
chain: B1 chain
partner: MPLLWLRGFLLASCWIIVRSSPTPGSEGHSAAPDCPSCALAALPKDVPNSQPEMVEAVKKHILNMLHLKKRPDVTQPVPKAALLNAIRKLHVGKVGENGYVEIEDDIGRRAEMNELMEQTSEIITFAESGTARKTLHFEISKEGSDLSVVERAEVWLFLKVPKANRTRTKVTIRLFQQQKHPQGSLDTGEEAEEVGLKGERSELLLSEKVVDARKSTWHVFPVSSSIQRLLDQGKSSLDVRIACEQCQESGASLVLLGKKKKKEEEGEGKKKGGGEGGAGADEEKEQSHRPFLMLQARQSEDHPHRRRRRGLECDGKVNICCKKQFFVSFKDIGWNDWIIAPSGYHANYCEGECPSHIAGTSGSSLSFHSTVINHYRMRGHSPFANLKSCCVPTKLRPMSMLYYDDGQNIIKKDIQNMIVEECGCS
B6: Mothers against decapentaplegic homolog 4 (Homo sapiens), Q13485 (parent)
chain: B1 chain
partner: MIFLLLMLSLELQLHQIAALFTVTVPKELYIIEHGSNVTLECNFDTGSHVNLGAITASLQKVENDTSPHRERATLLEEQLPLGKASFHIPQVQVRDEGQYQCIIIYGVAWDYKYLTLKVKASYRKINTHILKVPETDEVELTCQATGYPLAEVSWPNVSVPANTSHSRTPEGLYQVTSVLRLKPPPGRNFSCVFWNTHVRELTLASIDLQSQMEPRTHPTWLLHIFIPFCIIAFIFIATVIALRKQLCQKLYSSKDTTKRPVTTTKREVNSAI
B7: Mothers against decapentaplegic homolog 4 (Homo sapiens), Q13485 (parent)
chain: B1 chain
partner: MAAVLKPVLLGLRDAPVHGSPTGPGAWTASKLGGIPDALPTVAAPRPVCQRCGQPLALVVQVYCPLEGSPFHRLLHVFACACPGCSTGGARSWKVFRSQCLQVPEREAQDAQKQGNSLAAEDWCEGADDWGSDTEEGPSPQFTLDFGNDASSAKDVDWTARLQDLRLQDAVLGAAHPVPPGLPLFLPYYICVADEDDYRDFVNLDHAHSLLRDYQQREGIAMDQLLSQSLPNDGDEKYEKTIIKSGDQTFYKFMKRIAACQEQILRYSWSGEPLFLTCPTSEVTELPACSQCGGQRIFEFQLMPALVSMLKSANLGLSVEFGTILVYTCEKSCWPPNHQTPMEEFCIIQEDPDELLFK

Variants of: B1
Conditions: with nkx28_human NKX2-8, O15522

Variant	effect of a mutation on the interaction
R361C	with no effect

Variants of: B1
Conditions: with nkx28_human NKX2-8, O15522
Remark: another data set of the same source

Variant	effect of a mutation on the interaction
R361H	with no effect

Variants of: B2
Conditions: with gbra1_human GABRA1, P14867

Variant	effect of a mutation on the interaction
R361H	with no effect

Variants of: B2
Conditions: with gbra1_human GABRA1, P14867
Remark: another data set of the same source

Variant	effect of a mutation on the interaction
R361C	with no effect

Variants of: B2
Conditions: with gbra1_human GABRA1, P14867
Remark: another data set of the same source

Variant	effect of a mutation on the interaction
D351H	with no effect

Variants of: B2
Conditions: with gbra1_human GABRA1, P14867
Remark: another data set of the same source

Variant	effect of a mutation on the interaction
G386D	with no effect

Variants of: B3
Conditions: with inp4b_human INPP4B

Variant	effect of a mutation on the interaction
D351H	with no effect

Variants of: B3
Conditions: with inp4b_human INPP4B
Remark: another data set of the same source

Variant	effect of a mutation on the interaction
R361H	with no effect

Variants of: B3
Conditions: with inp4b_human INPP4B
Remark: another data set of the same source

Variant	effect of a mutation on the interaction
R361C	with no effect

Variants of: B3
Conditions: with inp4b_human INPP4B
Remark: another data set of the same source

Variant	effect of a mutation on the interaction
G386D	with no effect

Variants of: B4
Conditions: with mbd1_human MBD1, Q9UIS9

Variant	effect of a mutation on the interaction
G386D	with no effect

Variants of: B4
Conditions: with mbd1_human MBD1, Q9UIS9
Remark: another data set of the same source

Variant	effect of a mutation on the interaction
R361H	with no effect

Variants of: B4
Conditions: with mbd1_human MBD1, Q9UIS9
Remark: another data set of the same source

Variant	effect of a mutation on the interaction
R361C	with no effect

Variants of: B4
Conditions: with mbd1_human MBD1, Q9UIS9
Remark: another data set of the same source

Variant	effect of a mutation on the interaction
D351H	with no effect

Variants of: B5
Conditions: with inhba_human INHBA

Variant	effect of a mutation on the interaction
R361C	with no effect

Variants of: B5
Conditions: with inhba_human INHBA
Remark: another data set of the same source

Variant	effect of a mutation on the interaction
R361H	with no effect

Variants of: B5
Conditions: with inhba_human INHBA
Remark: another data set of the same source

Variant	effect of a mutation on the interaction
D351H	with no effect

Variants of: B5
Conditions: with inhba_human INHBA
Remark: another data set of the same source

Variant	effect of a mutation on the interaction
G386D	with no effect

Variants of: B6
Conditions: with pd1l2_human PDCD1LG2, Q9BQ51

Variant	effect of a mutation on the interaction
D351H	with no effect

Variants of: B6
Conditions: with pd1l2_human PDCD1LG2, Q9BQ51
Remark: another data set of the same source

Variant	effect of a mutation on the interaction
G386D	with no effect

Variants of: B7
Conditions: with pdd2l_human PDCD2L

Variant	effect of a mutation on the interaction
G386D	with no effect

Variants of: B7
Conditions: with pdd2l_human PDCD2L
Remark: another data set of the same source

Variant	effect of a mutation on the interaction
D351H	with no effect

Variants of: B7
Conditions: with pdd2l_human PDCD2L
Remark: another data set of the same source

Variant	effect of a mutation on the interaction
R361H	with no effect
